According to US20230105415A1 (ARIZONA BOARD OF REGENTSON BEHALF OF ARIZONA STATE …, published 2023):

Target: T1, human complement C1q (human, UniProt P02745 23-245; P02746 28-253; P02747 29-245)
T1 construct: also called human C1q
Assay: C1q binding ELISA, GnGn against wt plants (FIG. 9)

T1 sequence (P02745 23-245 limits assumed, chain 1 of 3): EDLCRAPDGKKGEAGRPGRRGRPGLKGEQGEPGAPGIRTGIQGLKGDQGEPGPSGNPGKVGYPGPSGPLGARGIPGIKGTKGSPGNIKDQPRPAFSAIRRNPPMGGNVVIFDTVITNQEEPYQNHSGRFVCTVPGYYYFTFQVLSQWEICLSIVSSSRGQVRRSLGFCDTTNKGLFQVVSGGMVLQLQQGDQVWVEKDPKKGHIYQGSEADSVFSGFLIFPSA
T1 sequence (P02746 28-253 limits assumed, chain 2 of 3): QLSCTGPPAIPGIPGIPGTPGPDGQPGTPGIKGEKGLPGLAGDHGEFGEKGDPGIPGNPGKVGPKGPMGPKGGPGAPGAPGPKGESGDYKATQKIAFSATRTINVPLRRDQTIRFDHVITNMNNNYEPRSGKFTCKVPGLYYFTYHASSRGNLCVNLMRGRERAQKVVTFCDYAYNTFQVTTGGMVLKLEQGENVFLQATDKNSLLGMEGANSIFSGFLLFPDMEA
T1 sequence (P02747 29-245 limits assumed, chain 3 of 3): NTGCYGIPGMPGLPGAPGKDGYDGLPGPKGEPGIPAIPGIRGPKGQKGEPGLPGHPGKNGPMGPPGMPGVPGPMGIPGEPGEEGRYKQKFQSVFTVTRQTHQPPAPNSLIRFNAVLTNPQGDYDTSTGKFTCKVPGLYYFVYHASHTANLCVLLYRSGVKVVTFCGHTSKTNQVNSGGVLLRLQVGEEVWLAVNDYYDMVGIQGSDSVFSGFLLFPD

B1: 6D8 antibody (full 6D8 mAb without ZE3 fusion, construct HL) (antibody)
heavy: not shown
light: DVLMTQSPLSLPVTLGQPASISCRSSQSIVHSNGNTYLEWYLQKPGQSPKLLIYKASNRFSGVPDRFSGSGSGTDFTLKISRVEAEDAGVYYCLQGSHVPSTFGGGTKVEIKTVAAPSVFIFPPSDEQLKSGTASVVCLLNNFYPREAKVQWKVDNALQSGNSQESVTEQDSKDSTYSLSSTLTLSKADYEKHKVYACEVTHQGLSSPVTKSFNRGEC
B1: binds.
